Laboratory results published in IntAct's records for PubMed 38225382.

B1: F-box only protein 28 (Homo sapiens), Q9NVF7 (parent)
chain: MAAAAEERMAEEGGGGQGDGGSSLASGSTQRQPPPPAPQHPQPGSQALPAPALAPDQLPQNNTLVALPIVAIENILSFMSYDEISQLRLVCKRMDLVCQRMLNQGFLKVERYHNLCQKQVKAQLPRRESERRNHSLARHADILAAVETRLSLLNMTFMKYVDSNLCCFIPGKVIDEIYRVLRYVNSTRAPQRAHEVLQELRDISSMAMEYFDEKIVPILKRKLPGSDVSGRLMGSPPVPGPSAALTTMQLFSKQNPSRQEVTKLQQQVKTNGAGVTVLRREISELRTKVQEQQKQLQDQDQKLLEQTQIIGEQNARLAELERKLREVMESAVGNSSGSGQNEESPRKRKKATEAIDSLRKSKRLRNRK
B2: Peroxisomal biogenesis factor 3 (Homo sapiens), P56589 (parent)
chain: MLRSVWNFLKRHKKKCIFLGTVLGGVYILGKYGQKKIREIQEREAAEYIAQARRQYHFESNQRTCNMTVLSMLPTLREALMQQLNSESLTALLKNRPSNKLEIWEDLKIISFTRSTVAVYSTCMLVVLLRVQLNIIGGYIYLDNAAVGKNGTTILAPPDVQQQYLSSIQHLLGDGLTELITVIKQAVQKVLGSVSLKHSLSLLDLEQKLKEIRNLVEQHKSSSWINKDGSKPLLCHYMMPDEETPLAVQACGLSPRDITTIKLLNETRDMLESPDFSTVLNTCLNRGFSRLLDNMAEFFRPTEQDLQHGNSMNSLSSVSLPLAKIIPIVNGQIHSVCSETPSHFVQDLLTMEQVKDFAANVYEAFSTPQQLEK
partner: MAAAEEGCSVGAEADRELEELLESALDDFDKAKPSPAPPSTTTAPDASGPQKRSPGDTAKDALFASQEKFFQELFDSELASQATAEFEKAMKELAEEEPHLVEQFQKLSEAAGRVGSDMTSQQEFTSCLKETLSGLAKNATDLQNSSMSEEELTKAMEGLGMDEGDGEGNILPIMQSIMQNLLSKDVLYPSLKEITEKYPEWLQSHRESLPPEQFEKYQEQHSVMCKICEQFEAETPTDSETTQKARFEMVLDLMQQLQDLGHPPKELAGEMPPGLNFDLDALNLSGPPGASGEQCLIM
B3: GRB10-interacting GYF protein 1 (Homo sapiens), O75420 (parent)
chain: MAAETLNFGPEWLRALSGGGSVASPPPSPAMPKYKLADYRYGREEMLALYVKENKVPEELQDKEFAAVLQDEPLQPLALEPLTEEEQRNFSLSVNSVAVLRLMGKGAGPPLAGTSRGRGSTRSRGRGRGDSCFYQRSIEEGDGAFGRSPREIQRSQSWDDRGERRFEKSARRDGARCGFEEGGAGPRKEHARSDSENWRSLREEQEEEEEGSWRLGAGPRRDGDRWRSASPDGGPRSAGWREHGERRRKFEFDLRGDRGGCGEEEGRGGGGSSHLRRCRAPEGFEEDKDGLPEWCLDDEDEEMGTFDASGAFLPLKKGPKEPIPEEQELDFQGLEEEEEPSEGLEEEGPEAGGKELTPLPPQEEKSSSPSPLPTLGPLWGTNGDGDETAEKEPPAAEDDIRGIQLSPGVGSSAGPPGDLEDDEGLKHLQQEAEKLVASLQDSSLEEEQFTAAMQTQGLRHSAAATALPLSHGAARKWFYKDPQGEIQGPFTTQEMAEWFQAGYFSMSLLVKRGCDEGFQPLGEVIKMWGRVPFAPGPSPPPLLGNMDQERLKKQQELAAAALYQQLQHQQFLQLVSSRQLPQCALREKAALGDLTPPPPPPPQQQQQQLTAFLQQLQALKPPRGGDQNLLPTMSRSLSVPDSGRLWDVHTSASSQSGGEASLWDIPINSSTQGPILEQLQLQHKFQERREVELRAKREEEERKRREEKRRQQQQEEQKRRQEEEELFRRKHVRQQELLLKLLQQQQAVPVPPAPSSPPPLWAGLAKQGLSMKTLLELQLEGERQLHKQPPPREPARAQAPNHRVQLGGLGTAPLNQWVSEAGPLWGGPDKSGGGSSGLGLWEDTPKSGGSLVRGLGLKNSRSSPSLSDSYSHLSGRPIRKKTEEEEKLLKLLQGIPRPQDGFTQWCEQMLHTLSATGSLDVPMAVAILKEVESPYDVHDYIRSCLGDTLEAKEFAKQFLERRAKQKASQQRQQQQEAWLSSASLQTAFQANHSTKLGPGEGSKAKRRALMLHSDPSILGYSLHGSSGEIESVDDY
B4: E3 ubiquitin-protein ligase TRIM37 (Homo sapiens), O94972 (parent)
chain: MDEQSVESIAEVFRCFICMEKLRDARLCPHCSKLCCFSCIRRWLTEQRAQCPHCRAPLQLRELVNCRWAEEVTQQLDTLQLCSLTKHEENEKDKCENHHEKLSVFCWTCKKCICHQCALWGGMHGGHTFKPLAEIYEQHVTKVNEEVAKLRRRLMELISLVQEVERNVEAVRNAKDERVREIRNAVEMMIARLDTQLKNKLITLMGQKTSLTQETELLESLLQEVEHQLRSCSKSELISKSSEILMMFQQVHRKPMASFVTTPVPPDFTSELVPSYDSATFVLENFSTLRQRADPVYSPPLQVSGLCWRLKVYPDGNGVVRGYYLSVFLELSAGLPETSKYEYRVEMVHQSCNDPTKNIIREFASDFEVGECWGYNRFFRLDLLANEGYLNPQNDTVILRFQVRSPTFFQKSRDQHWYITQLEAAQTSYIQQINNLKERLTIELSRTQKSRDLSPPDNHLSPQNDDALETRAKKSACSDMLLEGGPTTASVREAKEDEEDEEKIQNEDYHHELSDGDLDLDLVYEDEVNQLDGSSSSASSTATSNTEENDIDEETMSGENDVEYNNMELEEGELMEDAAAAGPAGSSHGYVGSSSRISRRTHLCSAATSSLLDIDPLILIHLLDLKDRSSIENLWGLQPRPPASLLQPTASYSRKDKDQRKQQAMWRVPSDLKMLKRLKTQMAEVRCMKTDVKNTLSEIKSSSAASGDMQTSLFSADQAALAACGTENSGRLQDLGMELLAKSSVANCYIRNSTNKKSNSPKPARSSVAGSLSLRRAVDPGENSRSKGDCQTLSEGSPGSSQSGSRHSSPRALIHGSIGDILPKTEDRQCKALDSDAVVVAVFSGLPAVEKRRKMVTLGANAKGGHLEGLQMTDLENNSETGELQPVLPEGASAAPEEGMSSDSDIECDTENEEQEEHTSVGGFHDSFMVMTQPPDEDTHSSFPDGEQIGPEDLSFNTDENSGR

Variants of: B1
Conditions: with stx1b_human STX1B

| Variant | effect of a mutation on the interaction |
| --- | --- |
| MAAAAEERMAEEGGGGQGDGGSSLASGSTQRQPPPPAPQHPQPGSQALPAPALAPDQLPQNNTLVALPIVAIENILSFMSYDEISQLRLVCKRMDLVCQRMLNQGFLKVERYHNLCQKQVKAQLPRRESERRNHSLARHADILAAVETRLSELNMTFMKYVDSNLCCFIPGKVIDEIYRVLRYVNSTRAPQRAHEVLQELRDISSMAMEYFDEKIVPILKRKLPGSDVSGRLMGSPPVPGPSAALTTMQLFSKQNPSRQEVTKLQQQVKTNGAGVTVLRREISELRTKVQEQQKQLQDQDQKLLEQTQIIGEQNARLAELERKLREVMESAVGNSSGSGQNEESPRKRKKATEAIDSLRKSKRLRNRK [L152E] | decreasing interaction strength |
| MAAAAEERMAEEGGGGQGDGGSSLASGSTQRQPPPPAPQHPQPGSQALPAPALAPDQLPQNNTLVALPIVAIENILSFMSYDEISQLRLVCKRMDLVCQRMLNQGFLKVERYHNLCQKQVKAQLPRRESERRNHSLARHADILAAVETRLSLLNMTFMKYVDSNLCCFIPGKVIDEIYRVLRYVNSTRAPQRAHEVLQELRDISSMAMEYFDEKIVPILKRKLPGSDVSGRLMGSPPVPGPSAALTTMQLFSKQNPSRQEVTKLQQQVKTNGAGVTVLRREISELRTKVQEQQKQLQDQDQKLLEQTQIIGEQNARLAELERKLREVMESAVGNSSGSGQNEESPRKLKKATEAIDSLRKSKRLRNRK [R348L] | increasing interaction strength |
| MAAAAEERMAEEGGGGQGDGGSSLASGSTQRQPPPPAPQHPQPGSQALPAPALAPDQLPQNNTLVALPIVAIENILSFMSYDEISQLRLVCKRMDLVCQRMLNQGFLKVERYHNLCQKQVKAQLPRRESERRNHSLARHADILAAVETRLSLLNMTFMKYVDSNLCCFIPGKVIDEIYRVLRYVNSTRAPQRAHEVLQELRDISSMAMEYFDEKIVPILKRKLPGSDVSGRLMGSPPVPGPSAALTTMQLFSKQNPSRQEVTKLQQQVKTNGAGVTVLRREISELRTKVQEQQKQLQDQDQKLLEQTQIIGEQNARLAELERKLREVMESAVGNSSGSGQNEESPRKRKKATEARDSLRKSKRLRNRK [I355R] | with no effect |

Variants of: B2
Conditions: with pex19_human PEX19, P40855

| Variant | effect of a mutation on the interaction |
| --- | --- |
| MLRSVWNFLKRHKKKCIFLGTVLGGVYILGKYGQKKIREIQEREAAEYIAQARRQYHFESNQRTCNMTVLSMLPTLREALMQQLNSESLQALLKNRPSNKLEIWEDLKIISFTRSTVAVYSTCMLVVLLRVQLNIIGGYIYLDNAAVGKNGTTILAPPDVQQQYLSSIQHLLGDGLTELITVIKQAVQKVLGSVSLKHSLSLLDLEQKLKEIRNLVEQHKSSSWINKDGSKPLLCHYMMPDEETPLAVQACGLSPRDITTIKLLNETRDMLESPDFSTVLNTCLNRGFSRLLDNMAEFFRPTEQDLQHGNSMNSLSSVSLPLAKIIPIVNGQIHSVCSETPSHFVQDLLTMEQVKDFAANVYEAFSTPQQLEK [T90Q] | with no effect |
| MLRSVWNFLKRHKKKCIFLGTVLGGVYILGKYGQKKIREIQEREAAEYIAQARSQYHFESNQRTCNMTVLSMLPTLREALMQQLNSESLTALLKNRPSNKLEIWEDLKIISFTRSTVAVYSTCMLVVLLRVQLNIIGGYIYLDNAAVGKNGTTILAPPDVQQQYLSSIQHLLGDGLTELITVIKQAVQKVLGSVSLKHSLSLLDLEQKLKEIRNLVEQHKSSSWINKDGSKPLLCHYMMPDEETPLAVQACGLSPRDITTIKLLNETRDMLESPDFSTVLNTCLNRGFSRLLDNMAEFFRPTEQDLQHGNSMNSLSSVSLPLAKIIPIVNGQIHSVCSETPSHFVQDLLTMEQVKDFAANVYEAFSTPQQLEK [R54S] | with no effect |
| MLRSVWNFLKRHKKKCIFLGTVLGGVYILGKYGQKKIREIQEREAAEYIAQARRQYHFESNQRTCNMTVLSMLPTLREALMQQLNSESLTALLKNRPSNKLEIWEDLKIISFTRSTVAVYSTCMLVVLLRVQLNIIGGYIYLDNAAVGKNGTTILAPPDVQQQYLSSIQHLLGDGLTELITVIKQAVQKVLGSVSLKHSLSLLDLEQKLKEIRNLVEQHKSSSWINKDGSKPLLCHYMMPDEETPLAVQACGLSPRDITTIKLLNETRDMLRSPDFSTVLNTCLNRGFSRLLDNMAEFFRPTEQDLQHGNSMNSLSSVSLPLAKIIPIVNGQIHSVCSETPSHFVQDLLTMEQVKDFAANVYEAFSTPQQLEK [E272R] | with no effect |

Variants of: B3
Conditions: with SNRPB

| Variant | effect of a mutation on the interaction |
| --- | --- |
| L508F | with no effect |
| W498E | decreasing interaction strength |

Variants of: B4
Conditions: with pnkp_human PNKP

| Variant | effect of a mutation on the interaction |
| --- | --- |
| F328R | with no effect |
